Results from the supplement of paper PMC10567573.

B1: C1orf55 (parent)
chain: FTSPDYQQQCHEMAERLEDSVLKG

Variants of: B1
Assay: protein stability index of a GFP-peptide fusion (GPS, HEK-293T) (PSI 1-6); higher = more stable
Conditions: c terminus: a fixed tail appended
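Note: lentivirally expressed fusions sorted by FACS into six bins by GFP to DsRed ratio, PSI derived from sequencing read proportions per bin multiplied by bin number.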

Variant	protein stability index
VTSPDYQQQCHEMAERLEDSVLKG	4.07
GTSPDYQQQCHEMAERLEDSVLKG	4.87
STSPDYQQQCHEMAERLEDSVLKG	4.31
LTSPDYQQQCHEMAERLEDSVLKG	5
PTSPDYQQQCHEMAERLEDSVLKG	5.18
CTSPDYQQQCHEMAERLEDSVLKG	4.43
DTSPDYQQQCHEMAERLEDSVLKG	4.84
MTSPDYQQQCHEMAERLEDSVLKG	4.55
ATSPDYQQQCHEMAERLEDSVLKG	4.88
TTSPDYQQQCHEMAERLEDSVLKG	4.88
WTSPDYQQQCHEMAERLEDSVLKG	3.75
ITSPDYQQQCHEMAERLEDSVLKG	4.68
YTSPDYQQQCHEMAERLEDSVLKG	1.94
KTSPDYQQQCHEMAERLEDSVLKG	4.64
ETSPDYQQQCHEMAERLEDSVLKG	4.78
RTSPDYQQQCHEMAERLEDSVLKG	3.98
NTSPDYQQQCHEMAERLEDSVLKG	4.84
HTSPDYQQQCHEMAERLEDSVLKG	4.59
QTSPDYQQQCHEMAERLEDSVLKG	4.35
FMSPDYQQQCHEMAERLEDSVLKG	3.79
FYSPDYQQQCHEMAERLEDSVLKG	2.88
FNSPDYQQQCHEMAERLEDSVLKG	4.04
FHSPDYQQQCHEMAERLEDSVLKG	2.25
FASPDYQQQCHEMAERLEDSVLKG	2.62

Variant	protein stability index
FKSPDYQQQCHEMAERLEDSVLKG	3.92
FGSPDYQQQCHEMAERLEDSVLKG	3.24
FFSPDYQQQCHEMAERLEDSVLKG	3.69
FESPDYQQQCHEMAERLEDSVLKG	4.24
FISPDYQQQCHEMAERLEDSVLKG	2.14
FRSPDYQQQCHEMAERLEDSVLKG	4.16
FWSPDYQQQCHEMAERLEDSVLKG	3.04
FSSPDYQQQCHEMAERLEDSVLKG	3.39
FQSPDYQQQCHEMAERLEDSVLKG	2.87
FDSPDYQQQCHEMAERLEDSVLKG	4.63
FPSPDYQQQCHEMAERLEDSVLKG	3.77
FVSPDYQQQCHEMAERLEDSVLKG	2.45
FLSPDYQQQCHEMAERLEDSVLKG	3.48
FCSPDYQQQCHEMAERLEDSVLKG	1.56
FTSNDYQQQCHEMAERLEDSVLKG	2.52
FTSADYQQQCHEMAERLEDSVLKG	2.37
FTSDDYQQQCHEMAERLEDSVLKG	4.06
FTSKDYQQQCHEMAERLEDSVLKG	2.41
FTSEDYQQQCHEMAERLEDSVLKG	4.3
FTSLDYQQQCHEMAERLEDSVLKG	2.18
FTSYDYQQQCHEMAERLEDSVLKG	1.98
FTSTDYQQQCHEMAERLEDSVLKG	2.06
FTSFDYQQQCHEMAERLEDSVLKG	2.6
FTSCDYQQQCHEMAERLEDSVLKG	2.87

Variant	protein stability index
FTSMDYQQQCHEMAERLEDSVLKG	2.23
FTSRDYQQQCHEMAERLEDSVLKG	2.8
FTSHDYQQQCHEMAERLEDSVLKG	2.63
FTSIDYQQQCHEMAERLEDSVLKG	2.37
FTSWDYQQQCHEMAERLEDSVLKG	2.61
FTSQDYQQQCHEMAERLEDSVLKG	2.62
FTSGDYQQQCHEMAERLEDSVLKG	2.06
FTSVDYQQQCHEMAERLEDSVLKG	2.09
FTSSDYQQQCHEMAERLEDSVLKG	2.26
FTSPDFQQQCHEMAERLEDSVLKG	1.84
FTSPDDQQQCHEMAERLEDSVLKG	4.95
FTSPDWQQQCHEMAERLEDSVLKG	3.06
FTSPDMQQQCHEMAERLEDSVLKG	3.94
FTSPDQQQQCHEMAERLEDSVLKG	4.78
FTSPDNQQQCHEMAERLEDSVLKG	4.27
FTSPDHQQQCHEMAERLEDSVLKG	4.48
FTSPDCQQQCHEMAERLEDSVLKG	4.51
FTSPDRQQQCHEMAERLEDSVLKG	4.24
FTSPDIQQQCHEMAERLEDSVLKG	3.94
FTSPDKQQQCHEMAERLEDSVLKG	4.44
FTSPDEQQQCHEMAERLEDSVLKG	5.43
FTSPDVQQQCHEMAERLEDSVLKG	4.37
FTSPDGQQQCHEMAERLEDSVLKG	4.76
FTSPDLQQQCHEMAERLEDSVLKG	4.3

Variant	protein stability index
FTSPDTQQQCHEMAERLEDSVLKG	4.41
FTSPDSQQQCHEMAERLEDSVLKG	4.63
FTSPDPQQQCHEMAERLEDSVLKG	4.14
FTSPDAQQQCHEMAERLEDSVLKG	4.56
FTSPYYQQQCHEMAERLEDSVLKG	2.28
FTSPLYQQQCHEMAERLEDSVLKG	2.33
FTSPFYQQQCHEMAERLEDSVLKG	2.09
FTSPEYQQQCHEMAERLEDSVLKG	2.41
FTSPGYQQQCHEMAERLEDSVLKG	1.8
FTSPWYQQQCHEMAERLEDSVLKG	2.62
FTSPNYQQQCHEMAERLEDSVLKG	2.47
FTSPTYQQQCHEMAERLEDSVLKG	2.17
FTSPQYQQQCHEMAERLEDSVLKG	2.29
FTSPRYQQQCHEMAERLEDSVLKG	2.03
FTSPIYQQQCHEMAERLEDSVLKG	2.15
FTSPMYQQQCHEMAERLEDSVLKG	2.12
FTSPKYQQQCHEMAERLEDSVLKG	2.57
FTSPHYQQQCHEMAERLEDSVLKG	2.03
FTSPCYQQQCHEMAERLEDSVLKG	3.59
FTSPPYQQQCHEMAERLEDSVLKG	2.94
FTSPSYQQQCHEMAERLEDSVLKG	1.81
FTSPAYQQQCHEMAERLEDSVLKG	2.15
